Laboratory results reported in US20170283834A1, “Processes for Producing A Fermentation Product Using A Fermenting Organism” (Novozymes A/S, priority 2014, published 2017).

Assays:
[1] = Penicillium oxalicum glucoamylase: temperature optimum (Reaction condition assay); format: biochemical; conditions: for Relative activity (%): Temperature optimum
Method: (§1) Substrate: 1% soluble starch (Sigma S-9765) in deionized water
(§2) Reaction buffer: 0.1 M Acetate buffer at pH 5.3 Glucose concentration determination kit: Wako glucose assay kit (LabAssay glucose, WAKO, Cat#298-65701).
To assess the temperature optimum of the Penicillium oxalicum glucoamylase the “Reaction condition”-assay described above was performed at 20, 30, 40, 50, 60, 70, 80, 85, 90 and 95° C.

[2] = Penicillium oxalicum glucoamylase: heat stability; format: biochemical; conditions: for Relative activity (%): Heat stability
Method: as §1, §2
20 microL soluble starch and 50 microL acetate buffer at pH 5.3 were mixed. 30 microL enzyme solution (50 micro g enzyme protein/ml) was added to a final volume of 100 microL followed by incubation at 37° C. for 15 min.
The glucose concentration was determined by Wako kits.
To assess the heat stability of the Penicillium oxalicum glucoamylase the Reaction condition assay was modifed in that the enzyme solution and acetate buffer was preincubated for 15 min at 20, 30, 40, 50, 60, 70, 75, 80, 85, 90 and 95° C. Following the incubation 20 microL of starch was added to the solution and the assay was performed as described above.

B1: Penicillium oxalicum glucoamylase: wild type Penicillium oxalicum glucoamylase disclosed in SEQ ID NO: 9 (protein, listed as Penicillium oxalicum)
chain: MRLTLLSGVAGVLCAGQLTAARPDPKGGNLTPFIHKEGERSLQGILDNLGGRGKKTPGTAAGLFIASPNTENPNYYYTWTRDSALTAKCLIDLFEDSRAKFPIDRKYLETGIRDYVSSQAILQSVSNPSGTLKDGSGLGEPKFEIDLNPFSGAWGRPQRDGPALRATAMITYANYLISHGQKSDVSQVMWPIIANDLAYVGQYWNNTGFDLWEEVDGSSFFTIAVQHRALVEGSQLAKKLGKSCDACDSQPPQILCFLQSFWNGKYITSNINTQASRSGIDLDSVLGSIHTFDPEAACDDATFQPCSARALANHKVYVDSFRSIYKINAGLAEGSAANVGRYPEDVYQGGNPWYLATLGASELLYDALYQWDRLGKLEVSETSLSFFKDFDATVKIGSYSRNSKTYKKLTQSIKSYADGFIQLVQQYTPSNGSLAEQYDRNTAAPLSANDLTWSFASFLTATQRRDAVVPPSWGAKSANKVPTTCSASPVVGTYKAPTATFSSKTKCVPAKDIVPITFYLIENTYYGENVFMSGNITALGNWDAKKGFPLTANLYTQDQNLWFASVEFIPAGTPFEYKYYKVEPNGDITWEKGPNRVFVAPTGCPVQPHSNDVWQF
For B1, the “activity maintained at 95° C.” value ([1]; 95° C.) was “more than 80%”, the “Relative activity (%)” value ([1]; 20° C.) was 63.6% and the “Relative activity (%)” value ([1]; 30° C.) was 71.7%. The “Relative activity (%)” value ([1]; 40° C.) was 86.4%, the “Relative activity (%)” value ([1]; 50° C.) was 99.4% and the “Relative activity (%)” value ([1]; 60° C.) was 94.6%. For the same molecule, the “Relative activity (%)” value ([1]; 70° C.) was 100.0%, the “Relative activity (%)” value ([1]; 80° C.) was 92.9% and the “Relative activity (%)” value ([1]; 85° C.) was 92.5%. The “Relative activity (%)” value ([1]; 90° C.) was 82.7%, the “Relative activity (%)” value ([1]; 95° C.) was 82.8% and the “Relative activity (%)” value ([2]; preincubated 15 min at 20° C.) was 91.0%. For the same molecule, the “Relative activity (%)” value ([2]; preincubated 15 min at 30° C.) was 92.9%, the “Relative activity (%)” value ([2]; preincubated 15 min at 40° C.) was 88.1% and the “Relative activity (%)” value ([2]; preincubated 15 min at 50° C.) was 100.0%. The “Relative activity (%)” value ([2]; preincubated 15 min at 60° C.) was 96.9%, the “Relative activity (%)” value ([2]; preincubated 15 min at 70° C.) was 86.0% and the “Relative activity (%)” value ([2]; preincubated 15 min at 80° C.) was 34.8%. For the same molecule, the “Relative activity (%)” value ([2]; preincubated 15 min at 85° C.) was 36.0%, the “Relative activity (%)” value ([2]; preincubated 15 min at 90° C.) was 34.2% and the “Relative activity (%)” value ([2]; preincubated 15 min at 95° C.) was 34.8%. For the same molecule, the “activity maintained after preincubation” value ([2]; up to 70° C., preincubation for 15 min) was “more than 80%”.
